# From patent publication US5824638A, “Oral insulin delivery” (Shire Laboratories, Inc., priority 1995, dated 1998)
# System: Caco-2 cells
# Test: Transport of insulin across Caco-2 cell monolayers (Transwell, apical to basal, RIA)
# Assay type: in vitro ADME, human
# Details: initial transport experiments, data not shown
# Text: The Caco-2 cell line has been established as the primary screening model for oral peptide delivery. Caco-2 cells are derived from a colon cancer and differentiate in culture to form intestinal epithelium similar to that found in the small intestine. The cells form a monolayer with many of the specific properties of the epithelial lining of the intestine: they form a brush border with normal enzymes, they form tight junctions between cells, and they acquire the barrier properties of an enterocyte sheet. When grown on permeable supports these cells can be used to screen drug microemulsion formulations.
# Caco-2 colon carcinoma cells were obtained from American Type Culture Collection (Rockville, Md.) and maintained in culture in high glucose DMEM with 10% fetal calf serum, plus pen/strep, at 37° C., in 5% CO2. Cells were subcultured roughly every 5-7 days, 1:3 in T75 flasks, or when cells were 80-90% confluent, as determined by visual inspection. […]
# For transport determinations, insulin transport enhancers were added to HBSS plus calcium and magnesium. […] Transport was measured by taking aliquots from the lower compartment, which was in contact with the basal surface of the cells. […] Aliquots were removed from each well and insulin levels determined by RIA and HPLC. Transport was calculated as percent transport per hour from top to bottom. […]
substance,measurement,value
^125 I labeled insulin: iodine-125 labeled insulin used in initial transport experiments,Transport of labeled insulin across Caco-2 cells,no increase in transport
